Assay: yeast display, Sf9 membrane polyspecificity reagent, FACS + sequencing; frameworks hold sequencing errors
Method in brief: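 A nanobody's polyreactivity label depends on the gate it was sorted from. Yeast display cells were stained with 10% biotinylated, detergent-solubilized Sf9 membrane reagent for 1 hour at 4 °C, enriched on streptavidin microbeads and sorted by FACS. The low and high (top ~1%) gates were set on anti-HA fluorescence for expression and streptavidin fluorescence for reagent binding.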

Sequence	polyreactivity (PSR sort gate)
QVQLVESGGGVVQARGSRRLSCAASGRSYANAMGWYRQAPGKERELVAAITKNGGGTYYADSVKGRFTISRDNAKNTVYLQMNSLKPEDTAVYYCAASYSRWYYTAKQQEFDYWGQGTQVTVSS	high polyreactivity
QVQLVESGGPLVQSGGSLRIICPASGSTFRYYSMGWYRQAPGKERELVAAISYGGGITNYADSVKGRLTISRDNAKNTVYLQMNSLKPEDTAVYYCAAYDRITRYDYWGQGTQVTVSS	high polyreactivity
QVQLVESGGRIVQAGGSLRLRCAASGRTLLRYAMGWSRQAPGKERELVAAISSSGGRTYYADSVKGRFTISRDNEKNTVYLQMNSLKPEDTAVYYCAAKSSYVGHDYWGQGTQVTVSS	high polyreactivity
QVQLVESGGRIVQAGGSLRLSCAASGRLFDRYAMGWYRQAPGQERELVAAISWSAGSTYYADSVKGRFTISRDNAKNTVYLQMNSLKPEDTAVYYCAVPARGTFLLRDGGRAEFDYWGQGTQVTVSS	low polyreactivity
QVQLVESGGRIVQAGGSLRLSCAASGRTFLYNVMGWSRQAPGKERELVAAITSGGRTYYADSVKGRFTISRDNAKNTVYLQMNSLKPEDTAVYYCNADRQLYIYRYDYWGQGTQVTVSS	low polyreactivity
QVQLVESGGRLVKAGASHRLSCAASAITCGRNTRGWYRQAPGKARELVAAIDSGVNTYADSVKGRFTISRDNAKYTVYLQMTSLKPEDTSVYYWAFVGGEFSSYGYWGLGTQVTVSS	low polyreactivity
QVQLVESGGRLVQAGASLRLSCAASASIFASNAMGWYRHEPGKERELVAAINSGDSTNYADSVKGRFTISRDNAKNTVYLQMNSLKPEDTAVYYCARGLEERYDYWGQGTQVTVSS	low polyreactivity
QVQLVESGGRLVQAGASLRLSCDASGRIFQWYAIGWYRQAPGKVRELVAAITSGSSTYYADSVKGRFTISRDNAKNSVYLQMNSLKPEDTAVYYCAAEAVYVSSWYDDYYYFRYDYWGQGTQVTVSS	high polyreactivity
QVQLVESGGRLVQAGCSLRLSCAASGSIFDVYAMGWYRPAPGKERELVAAISRGGRTYYADSVKGRFTISRDNAKNTVYLQMNSLKPEDTAVYYCAAVTRLDGNMDYWGQGTQVTVSS	high polyreactivity
QVQLVESGGRLVQAGFSLRLSCAASGSTFRWYALGWYRQAPGIESELVAAITSGGRTYYADSVKGRFTISRDNAKNPVYLQMSSLKPEATAGYYCAAQYADRGKRDYWGQGTQVTGSS	high polyreactivity
QVQLVESGGRLVQAGGILRLSCAASGFIFLSYAMGWYRQAPGKERELVAAITSNGGSTYYADSVKGRFTISRDNAKNTVYLQMNSLKPEDTSVYYCAARFSQGKVRMGYWGQGTQVTVSS	high polyreactivity
QVQLVESGGRLVQAGGILRLSCAASGRIFSANAMGWYRQAPGKERELVAAITSSGGSTYYADSVKGRFTISRDNAKNTVYLQMNSLKPEDTAVYYCAAESAAYGGGTSDAGYESDYLGQGTQVTVSS	low polyreactivity
QVQLVESGGRLVQAGGSIRLSCAASGSTLNVNAMGGYRQAPGKERELVAAITSGGSTYYADSVKGRFTISRDNAKNTVYLQMNSLKPEDTAVYYCNKRRSWRPTYPIGGSGFYYWGQGTQVTVSS	low polyreactivity
QVQLVESGGRLVQAGGSLRISSAASGFIFYKYTMGWYRQAPGKERELVAAITRSGGSTYYADSVKGRCTISRDNAKNTVYLQMNSLKPEDTAVYYCAATQSFRRNYDYWGQGTQVTVSS	high polyreactivity
QVQLVESGGRLVQAGGSLRLLGAASGRIIYYNAMGWYRPAPGKERELVAAISSIGGSTYADSVKGRFTISRDNAKNTVYLQMNSLKPEDTAVYYCAADGFKRLYTQVAHVRYDYWGQGTQVTVSS	low polyreactivity
QVQLVESGGRLVQAGGSLRLSCAAAAITFYLYAMGRYRQAPGKERELVAAISSSGGSTYYADSVKGRFTISRDNAKNTVYLQINSLKPEDTAVYYCNARRRTVPYRYDYWGQGTQVTVSS	high polyreactivity
QVQLVESGGRLVQAGGSLRLSCAASGFIFRSYAMGWYRQAPGKERELVAAISSRGGSTSYADSVKGRFTISRDNAKNTVYLQLNSLKPEDTAVYYCNAYQYPGYGNNYWGQGSQVTVSS	high polyreactivity
QVQLVESGGRLVQAGGSLRLSCAASGFIFRYNAMGWYRQAPGKERELVARITSSGGTTYYADSVKGRFTISRDSSKNTVYLQMNSLKPEDTAVYYCNARKVRYPYGWYDYWGQGTQVTVSS	high polyreactivity
QVQLVESGGRLVQAGGSLRLSCAASGFSFGGNVIGWYRQAPGKDREFVAAITDGDGSTYYADSVKGRFTISRDNAKNTVYLQMNSLKPEDTSVYYCAGDVYYADVYPVEYWGQGTQVTVSS	high polyreactivity
QVQLVESGGRLVQAGGSLRLSCAASGFTFRRYAMGWYRQAPGKERELVAVITTAGSTNYADSVKGRFTISRDNAKNTVYLQMNTLKPEDTAVYYCATDNGTRKRRYDYWGQGTQVTVSS	low polyreactivity
QVQLVESGGRLVQAGGSLRLSCAASGFTFRYYDMRWYRPAPGKVRELVAAISSGGSTDYADSVKGRFTISRDNAKNTVYLQMNSLKPEDTAVYYCAADWWVVYTYDYWGRGTQVTVSS	low polyreactivity
QVQLVESGGRLVQAGGSLRLSCAASGFTFSHYAMGWYRQAPGKERELVAAISGRGGSTYYADSVKGRFTISRDNAKNTVYLPMNSLKPEDTAVYYCAARPSTYYTGHDYWGQGTQVTVSS	high polyreactivity

Sequence	polyreactivity (PSR sort gate)
QVQLVESGGRLVQAGGSLRLSCAASGFTFSSYAMGWYRQAPGKERELVAAISTRCGSTYYADSVKGRFTISRDNAKNTVYLQMNSLKPEDTAVYYCATGCRGGRRYEYWGQGTQVTVSS	low polyreactivity
QVQLVESGGRLVQAGGSLRLSCAASGGIIRGYAMGWYRQAPGKEWELVATIRSSGRTNYADSVKGRFTISRDNEKNTVYFQMNSLKQEDTAVYYCAAVVRQYGFDYWGQGTQVTVSS	low polyreactivity
QVQLVESGGRLVQAGGSLRLSCAASGGTFRVYAMGWNRQAPGKEIEFVAAISAHGGRTYYADSVKGRFTISRDNAQNTVYLQLNSLKPEDTAVYYFYNRLPNSQDGTSAHYTYYSWGQGTQVTVSS	low polyreactivity
QVQLVESGGRLVQAGGSLRLSCAASGIIFPYNTMGWYRQSPGKERELVASIDDGGSTNYADSVKGRFTISRDNAKNTVYLQMNSLKPEDTAVYYCNADLFFIYVRQPGYDYWGQGTQVTVSS	low polyreactivity
QVQLVESGGRLVQAGGSLRLSCAASGITFDLYDMGWYRQAPGKVRELVAAITDADSTYYADSVKGRFTMSRDNEKNTVKLQMTSLIPEDTAVYYCAADFFYSVYSGHYDYWGQGTQVTVSS	low polyreactivity
QVQLVESGGRLVQAGGSLRLSCAASGITFLKYALGWYRQAPGKERELVAAISRRGGSTYYADSVKGRFTISRDNAMNTVYLEMNSLKPSDTAVYYCAARTVRGTWSQNDYCGQGTQVTVSS	low polyreactivity
QVQLVESGGRLVQAGGSLRLSCAASGITFVYYAMGWYRQAPGKERELVASISSGGSTYYADSVKGRFTISRDNAKNTVYLQMNSLKPEDTAVYDCAAPTGWYPAYGEYEYWGQGTQVTVSS	low polyreactivity
QVQLVESGGRLVQAGGSLRLSCAASGITFYDYAMGWYRQAPGKERELVAAITWNGGDTYYADSVKGRFTISRDNAKNTVYLQMHSLKPEDTAVYYCNATRHYFGGFHYEYYYWGQGTQVTVSS	low polyreactivity
QVQLVESGGRLVQAGGSLRLSCAASGRIFARYAMGWYRQAPGKERELLASINSGGNTYYADSVKGRFTISRDNAKNTVYLQMNSLKPEDTAVYYCAAVVGRRPSSRSRFEYDYWGQGTQVTVSS	low polyreactivity
QVQLVESGGRLVQAGGSLRLSCAASGRIFRVYAMGWYRQAPGKERELVAAISSRGGRTYYADSVKGRFTISRDNAKNTVYLQMNSLKPEDTAVYFCAADGRSSSRTTSRYDYWGQGTQVTVSS	high polyreactivity
QVQLVESGGRLVQAGGSLRLSCAASGRIYTPYAMGWYRQAPGTERELVAAISTIGGTTYADSVKGRFTISRDNAKNTVYLQMNSLKPEDTAVYYCNTRRTGRRSTTPGDYWGQGTQVTVSS	high polyreactivity
QVQLVESGGRLVQAGGSLRLSCAASGRNFGLYAMGWYRQAPGKEREFVAAIRWIGGGTYYADSVKGRFTISRDNAKNTVYLQMNSLKPEDTAVYYCAARLSVAWVGYDYWGQGTQVTVSS	low polyreactivity
QVQLVESGGRLVQAGGSLRLSCAASGRTFGYYAMGWYRQAPGQERELVAAITESGGSTYYSDSVKGRFTISRDNAMNTVYLQMNSLKPEDTAVYYFASTHFVKGDYWGQGTQVTVSS	high polyreactivity
QVQLVESGGRLVQAGGSLRLSCAASGRTFQGNAMGWSRQAPGKERELVAAISIRSGRTYYADSVKGRFTISRDNAKNTVYLQMNSLKPEDTAVYYCAAYRGKVRYDYWGQGTQVTVSS	high polyreactivity
QVQLVESGGRLVQAGGSLRLSCAASGRTFRSHTKGWYRKAPGKERELVAAIIIGGSTYYADTVKGRFTISRDNAKNTVYLQMNSLKPEDSAVYYCARFYRYSRDYWGQGTQVTVSS	high polyreactivity
QVQLVESGGRLVQAGGSLRLSCAASGRTFRSYAMGWYRPAPGKEWELVAAIRTSDGITYYADSVKGRFTISRDNAKNTVDLQMNSLQPEDTAVYYCAAENWYKYDYWGQGTQVTVSS	low polyreactivity
QVQLVESGGRLVQAGGSLRLSCAASGRTFSFYAMGWYRQAPGQERELVAGIDWDDGSTSYADSVKGRFTISRDNAKNSVYLQMNSLKPEDTAVYYCAADIGYDDYNDYDYWGQGTQVTVSS	low polyreactivity
QVQLVESGGRLVQAGGSLRLSCAASGRTFSVYAMGWYRQAPGKERELVAGITSGGSTNYADSVKGRFTISRDNAKNTVYLQMNSRKPEDTAVYYCAAEIVYAAFGFDSIGDYWGQGTQVTVSS	low polyreactivity
QVQLVESGGRLVQAGGSLRLSCAASGRTLSSYVIGWYRQAPGKERELVAAITQSTSRTYYADSVKGRFTISRDNAKNTVYLQMHSLKPEDTAVYYCAAEGRFGRKYGYWGQGTQVTVSS	low polyreactivity
QVQLVESGGRLVQAGGSLRLSCAASGSIFGFNAMGWYRQAPGKERELVAAIIYGGSTNYADSVKGRFTISRDNEKNTVYLQMNSQKPEDTAVYYCAARLNYIRRGYWGQGTQVTVSS	high polyreactivity
QVQLVESGGRLVQAGGSLRLSCAASGSIFNRYAMGWYRQAPGKERELVARITNRSGNTYYADSVKGRFTISRANAKNTVYLQMNSLKPEDTAVYYCAATKSLGRYNMDYWGQGTQVTVSS	low polyreactivity
